Drawing on paper PMC7755894, this text covers fold decrease in pSTAT5 in human CD4+ CD25+ Treg cells (PBMCs, 15 min for one substance.

In the experiment the target is recombinant hCD25 (human IL-2Rα) (human) (UniProt P01589).
Sequence of UniProt P01589 (P01589 22-240): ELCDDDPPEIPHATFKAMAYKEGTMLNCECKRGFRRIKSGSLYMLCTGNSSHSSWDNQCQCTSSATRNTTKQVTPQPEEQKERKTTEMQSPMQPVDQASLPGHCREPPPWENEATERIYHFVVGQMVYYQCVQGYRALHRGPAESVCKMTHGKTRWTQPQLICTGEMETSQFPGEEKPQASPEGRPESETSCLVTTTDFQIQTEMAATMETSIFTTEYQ

Sequence of NARA1leukin (P60568 whole entry, looked up): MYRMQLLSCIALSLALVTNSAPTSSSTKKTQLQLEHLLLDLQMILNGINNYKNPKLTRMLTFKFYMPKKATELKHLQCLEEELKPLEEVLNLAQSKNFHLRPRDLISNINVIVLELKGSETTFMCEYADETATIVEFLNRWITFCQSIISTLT

Take “NARA1leukin (from UniProt P60568 97-153; P60568 22-96)”: the fold decrease in pSTAT5 in human CD4+ CD25+ Treg cells (PBMCs, 15 min at 37 °C); stimulation by NARA1leukin compared to hIL-2/NARA1 complexes worked out at 30 fold.
